Tests used:
[1] = target: T1, coreROQ (Roquin-1 core ROQ domain) (murine) (UniProt Q4VGL6); assay: optical tweezers (kinetics, koff/kon); settings: low-salt buffer, Protein/RNA buffer 150 mM NaCl, 50 mM Tris pH 7.0, 1 mM TCEP, OT in low-salt near-physiological buffer (composition not in material), EMSA 3 nM RNA, 0-20 uM …
T1 sequence: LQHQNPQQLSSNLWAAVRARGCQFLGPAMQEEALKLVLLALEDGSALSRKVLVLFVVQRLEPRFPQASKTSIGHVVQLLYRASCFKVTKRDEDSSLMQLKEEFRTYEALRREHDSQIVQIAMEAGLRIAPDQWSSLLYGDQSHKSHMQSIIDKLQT

[2] = target: T2, extROQ (Roquin-1 extended ROQ domain) (murine) (UniProt Q4VGL6); assay: optical tweezers (kinetics, koff/kon); settings: low-salt buffer, Protein/RNA buffer 150 mM NaCl, 50 mM Tris pH 7.0, 1 mM TCEP, OT in low-salt near-physiological buffer (composition not in material), EMSA 3 nM RNA, 0-20 uM …
T2 sequence: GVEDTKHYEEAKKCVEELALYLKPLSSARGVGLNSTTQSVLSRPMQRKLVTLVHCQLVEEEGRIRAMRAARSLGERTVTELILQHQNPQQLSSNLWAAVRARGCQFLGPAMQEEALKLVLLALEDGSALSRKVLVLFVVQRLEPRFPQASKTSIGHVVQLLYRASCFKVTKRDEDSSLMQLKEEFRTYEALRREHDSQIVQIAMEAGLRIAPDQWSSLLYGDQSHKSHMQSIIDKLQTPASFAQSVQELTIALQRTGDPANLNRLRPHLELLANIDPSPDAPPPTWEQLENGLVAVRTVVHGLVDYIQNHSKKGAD

[3] = target: T3, coreROQ (Roquin-1 core ROQ domain) (murine, UniProt Q4VGL6 171-326); assay: hydroxyl radical footprinting; residues 62-87 protected, 88-100 more exposed; Protein/RNA buffer 150 mM NaCl, 50 mM Tris pH 7.0, 1 mM TCEP; OT in low-salt near-physiological buffer (composition not in material); EMSA 3 nM RNA, 0-20 uM protein, 6% native PAGE at 4 C; settings: protein: recombinant; tags: His tag removed by TEV (Ni IMAC; tag type implied); label: 5' fluorescein in EMSA; none stated for NMR/CD; hairpin with hexaloop and central bulge
T3 sequence: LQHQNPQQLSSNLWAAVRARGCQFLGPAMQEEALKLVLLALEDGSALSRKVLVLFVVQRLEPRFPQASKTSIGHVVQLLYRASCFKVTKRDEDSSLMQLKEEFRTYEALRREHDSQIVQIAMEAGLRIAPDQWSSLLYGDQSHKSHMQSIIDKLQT

[4] = target: T4, extROQ (Roquin-1 extended ROQ domain) (murine, UniProt Q4VGL6 89-404); assay: as above; settings: protein: recombinant; tags: His tag removed by TEV (Ni IMAC; tag type implied); label: 5' fluorescein in EMSA; none stated for NMR/CD; hairpin with hexaloop and central bulge
T4 sequence: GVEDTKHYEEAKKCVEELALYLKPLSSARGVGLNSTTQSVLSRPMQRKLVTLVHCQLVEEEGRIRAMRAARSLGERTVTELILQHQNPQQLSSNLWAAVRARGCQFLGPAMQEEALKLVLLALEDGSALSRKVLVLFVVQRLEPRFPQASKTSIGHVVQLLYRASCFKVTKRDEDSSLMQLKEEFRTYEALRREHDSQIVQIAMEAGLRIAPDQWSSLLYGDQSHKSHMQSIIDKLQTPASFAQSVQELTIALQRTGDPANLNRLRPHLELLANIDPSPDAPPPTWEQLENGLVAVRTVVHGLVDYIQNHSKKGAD

For “GGCAGGGCUGACGUAGUUGGAGUGGUGCGGGAGGGCCUGCCAGUACCCUCCACACCGUUCUAGGUGCUGGGCUGGCUCUGGGCAGUGAGGGCAGAAUUCAGGUG [Ox40 ADE, optical tweezers construct]”, the Kd ([1]; extrapolated to zero force) was 4.8 nM and the Kd ([2]; extrapolated to zero force) was 1.67 nM.

Molecule “GGCAGGGCUGACGUAGUUGGAGUGGUGCGGGAGGGGCUUUCCUAUGUAUGCUAUGCAUACUACAGUGAGGGCAGAAUUCAGGUG [Ox40 CDE, optical tweezers construct]” has a Kd ([1]; zero force) of 33 nM and a Kd ([2]; zero force) of 2 nM.

GCCUGCCAGUACCCUCCACACCGUUCUAGGUGCUGGGCUGGCUCUGGGC (structured_RNA) [Ox40 ADE, bulk RNA]: binds [3]; binds [4].
